The values that follow come from PMC5645086, “Analysis of the interaction of Plexin-B1 and Plexin-B2 with Rnd family proteins” (PLoS ONE, 2017).

For one data set, the target named is Rnd2 (Homo sapiens) (UniProt P52198). Particulars: cited from earlier work.
Data set [1] concerns the target T1, Rnd3-N86R (GTP-binding domain, residues 16-200) (UniProt P61587 16-200, N86R).
T1 construct: source: E. coli BL21 (DE3), purified in the same way as wild type Rnd3; not shown: His6, N-terminal, cleaved
T1 sequence (looked up): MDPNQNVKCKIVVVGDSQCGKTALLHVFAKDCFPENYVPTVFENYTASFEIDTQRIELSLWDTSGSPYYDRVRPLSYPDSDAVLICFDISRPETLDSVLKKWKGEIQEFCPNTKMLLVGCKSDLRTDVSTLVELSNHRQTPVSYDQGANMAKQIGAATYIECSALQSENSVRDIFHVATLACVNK
Put plainly: ITC; Plexin-B-RBD (400-600 uM, syringe) titrated into Rnd protein (40-60 uM, cell); 25°C; buffer 2: 50 mM sodium phosphate pH 7.0, 150 mM NaCl, 4 mM MgCl2, 3 mM DTT; independent binding sites model. Particulars: both partners purified. A general note: Isothermal titration calorimetry measures the heat released or taken up as one component is titrated into another.

In data set [2] the target is T2, Rnd3-F124Y (GTP-binding domain, residues 16-200) (UniProt P61587 16-200, F124Y).
T2 construct: source: E. coli Rosetta 2 (DE3), purified in the same way as wild type Rnd3; not shown: His6, N-terminal, cleaved
T2 sequence (looked up): T1 sequence (looked up) with R71N, F109Y
Described as above. Particulars: both partners purified.

Data set [3] addresses T3, Rnd3-Y60A (GTP-binding domain, residues 16-200) (UniProt P61587 16-200, Y60A).
T3 construct: source: E. coli BL21 (DE3), purified in the same way as wild type Rnd3; not shown: His6, N-terminal, cleaved
T3 sequence (looked up): T1 sequence (looked up) with Y45A, R71N
The data set is described as above. Particulars: both partners purified.

Data set [4] has as its target T4, Rnd3 GTP-binding domain (residues 16-200), wild type (UniProt P61587 16-200).
T4 construct: source: E. coli BL21 (DE3), purified (Nickel-NTA, TEV cleavage; in some cases ion exchange or size exclusion chromatography); not shown: His6, N-terminal, cleaved
T4 sequence (looked up): T1 sequence (looked up) with R71N
The data set is described as above. Conditions: both partners purified.

Data set [5] deals with T5, Rnd1 GTP-binding domain (residues 1-191) (UniProt Q92730 1-191).
T5 construct: source: E. coli Rosetta 2 (DE3), purified (Nickel-NTA, TEV cleavage; in some cases ion exchange or size exclusion chromatography); not shown: His6, N-terminal, cleaved
T5 sequence (looked up): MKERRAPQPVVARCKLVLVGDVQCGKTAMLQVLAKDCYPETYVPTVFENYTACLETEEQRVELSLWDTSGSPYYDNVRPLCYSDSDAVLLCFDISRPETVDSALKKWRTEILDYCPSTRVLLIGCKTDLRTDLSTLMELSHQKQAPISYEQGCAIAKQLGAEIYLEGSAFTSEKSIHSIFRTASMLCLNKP
The description is as above. Particulars: both partners purified.

Data set [6] concerns the target T6, Rnd2 GTP-binding domain (residues 2-184) (UniProt P52198 2-184).
T6 construct: source: E. coli BL21 (DE3), purified (Nickel-NTA, TEV cleavage; in some cases ion exchange or size exclusion chromatography); not shown: His6, N-terminal, cleaved
T6 sequence (looked up): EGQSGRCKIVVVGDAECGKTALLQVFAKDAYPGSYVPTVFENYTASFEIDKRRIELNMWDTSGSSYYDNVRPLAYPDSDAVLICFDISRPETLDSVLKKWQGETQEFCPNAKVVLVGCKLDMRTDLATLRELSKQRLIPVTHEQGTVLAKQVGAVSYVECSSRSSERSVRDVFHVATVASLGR
The data set is described as above. Particulars: both partners purified.

Data set [7] deals with the molecule itself. Put plainly: ITC; control dilution: Plexin-B1-RBD titrated into buffer alone, same conditions as the binding titrations; dimer to monomers.
The target of data set [8] is T7, Rnd1 GTP-binding domain (residues 1-191) (UniProt Q92730 1-191).
T7 construct: Cloned into pETDuet-1; tag removed with TEV protease; source: E. coli Rosetta 2 (DE3), purified (Nickel-NTA chromatography, TEV cleavage; in some cases ion exchange or size exclusion chromatography); not shown: His6, N-terminal, cleaved
T7 sequence (looked up): T5 sequence (looked up)
The data set can be described thus: ITC; Plexin-B1-RBD in the syringe titrated into Rnd1 in the cell; low salt buffer 1: 50 mM sodium phosphate pH 7.0, 50 mM NaCl, 4 mM MgCl2, 3 mM DTT, 25°C; independent binding sites model; mean and SD of 5 fitted binding curves. Particulars: both partners purified.

Changes are numbered by the printed parent chain.

Sequence of Rnd2 (Homo sapiens) (P52198 1-224): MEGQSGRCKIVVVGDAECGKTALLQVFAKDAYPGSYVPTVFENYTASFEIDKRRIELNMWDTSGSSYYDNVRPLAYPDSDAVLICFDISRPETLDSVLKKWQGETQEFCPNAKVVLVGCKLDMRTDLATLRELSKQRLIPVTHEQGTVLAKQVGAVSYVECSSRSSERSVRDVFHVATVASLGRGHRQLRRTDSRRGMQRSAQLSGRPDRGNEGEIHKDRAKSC

Take Plexin-B1 RBD (from UniProt O43157): in the data set with Rnd2 (Homo sapiens), the Kd (as a rule, the free concentration of one partner at which half of the binding sites on the other are occupied at equilibrium, for simple one-to-one binding) is greater than 20 µM.

B1: Plexin-B2-RBD (Rho-binding domain of Plexin-B2, residues 1452-1562) (domain or fragment, UniProt O15031 1452-1562, looked up)
chain: GLLGDDVEYAPLTVSVIVQDEGVDAIPVKVLNCDTISQVKEKIIDQVYRGQPCSCWPRPDSVVLEWRPGSTAQILSDLDLTSQREGRWKRVNTLMHYNVRDGATLILSKVG
notes: Vector pETDuet-1; tag removed with TEV protease; source: E. coli BL21 (DE3), purified (Nickel-NTA, TEV cleavage; in some cases ion exchange or size exclusion chromatography); not shown: His6, N-terminal, cleaved
As for B1, the Kd was determined as 3.86 µM in data set [1]; 2.97 µM in data set [2]; 3.06 µM in data set [3]; 3.01 µM in data set [4]; 11.1 µM in [5]; 4.93 µM in data set [6]. Also, the dH in data set [1] was -7.37 kcal/mol; in [2], -7.73 kcal/mol; in data set [3], -5.64 kcal/mol; in data set [4], -9.33 kcal/mol; in data set [5], -6.67 kcal/mol; in data set [6], -4.29 kcal/mol. In addition, the stoichiometry N (in general, the number of molecules, sites or subunits per partner or assembly) in data set [1] was 1.13; in [2], 1.14; in data set [3], 1.06; in data set [4], 1.23; in data set [5], 1.05; in data set [6], 1.15.

B2: Plexin-B1-RBD (Rho-binding domain of Plexin-B1, residues 1746-1851), histidine-tagged (domain or fragment, UniProt O43157 1746-1851, looked up)
chain: YRPLTLNALLAVGPGAGEAQGVPVKVLDCDTISQAKEKMLDQLYKGVPLTQRPDPRTLDVEWRSGVAGHLILSDEDVTSEVQGLWRRLNTLQHYKVPDGATVALVP
notes: A TEV protease site lies between the hexahistidine tag and the domain; Vector pETDuet-1; also called HisPlexin-B1; Plexin-B-RBD; source: E. coli BL21 (DE3), purified (Nickel-NTA; in some cases ion exchange or size exclusion chromatography); not shown: His6, N-terminal, kept
B2: the binding result in data set [7] was “binds”. For the same molecule, the Kd in data set [1] was determined as 8.12 µM; in data set [2], 4.6 µM; in data set [3], 7.26 µM; in [4], 6.62 µM; in [5], 2.37 µM; in data set [6], 7.64 µM. Further, the dH in [1] was -5.53 kcal/mol; in data set [2], -8.65 kcal/mol; in data set [3], -2.76 kcal/mol; in [4], -9.73 kcal/mol; in data set [5], -15.6 kcal/mol; in data set [6], -7.33 kcal/mol. Besides, the “stoichiometry N” value was 0.91 in [1]; 1.04 in data set [2]; 1.02 in data set [3]; 1.07 in [4]; 0.85 in data set [5]; 1.16 in [6].

B3: Plexin-B1-RBD (Rho-binding domain of Plexin-B1, residues 1746-1851), histidine-tagged (domain or fragment, UniProt O43157 1746-1851, looked up)
chain: B2 chain
notes: A TEV protease cleavage site lies between the hexahistidine tag and the domain; removal of the tag was inefficient for Plexin-B1-RBD, so the tag was kept; Cloned into pETDuet-1; also called HisPlexin-B1; source: E. coli BL21 (DE3), purified (Nickel-NTA chromatography; in some cases ion exchange or size exclusion chromatography); not shown: His6, N-terminal, kept
As to B3, in data set [8], the Kd was 5.37 µM and the “stoichiometry N” value was 0.94.
